Experimental data taken from publication PMC4681436.
Values joined by “and” are separate entries in the source; they are usually repeats but may differ in a detail not shown here. Identical values can stand only once. Each block holds one substance with its values, some of them ahead of it.

Legend:
[1] = tested on: CCCCCCC(=O)N[C@H]1CCOC1=O; experiment: purified protein; settings: 1 mM Hepes pH 7.5, 30 μM ZnSO4, 1% methanol, dizinc enzyme
CCCCC(=O)N[C@H]1CCOC1=O = experiment: purified protein; settings: 1 mM Hepes pH 7.5, 30 μM ZnSO4, 1% methanol, dizinc enzyme
[2] = tested on: CCCCCC(=O)CC(=O)N[C@H]1CCOC1=O; experiment: purified protein; settings: 1 mM Hepes pH 7.5, 30 μM ZnSO4, 1% methanol, dizinc enzyme
CCCC(=O)N[C@H]1CCOC1=O = experiment: purified protein; settings: 1 mM Hepes pH 7.5, 30 μM ZnSO4, 1% methanol, dizinc enzyme
[3] = tested on: CCCCCCCCCCCC(=O)N[C@H]1CCOC1=O; experiment: purified protein; settings: 1 mM Hepes pH 7.5, 30 μM ZnSO4, 1% methanol, dizinc enzyme
[4] = tested on: CCCCCCCCCC(=O)N[C@H]1CCOC1=O; experiment: purified protein; settings: 1 mM Hepes pH 7.5, 30 μM ZnSO4, 1% methanol, dizinc enzyme
CC(C)(C)OC(=O)NC1CCOC1=O = experiment: purified protein; settings: 1 mM Hepes pH 7.5, 30 μM ZnSO4, 1% methanol, dizinc enzyme
[5] = tested on: O=C(/C=C/c1ccccc1)N[C@H]1CCOC1=O; experiment: purified protein; settings: 1 mM Hepes pH 7.5, 30 μM ZnSO4, 1% methanol, dizinc enzyme
[6] = tested on: CCCCCCCC(=O)N[C@H]1CCOC1=O; experiment: purified protein; settings: 1 mM Hepes pH 7.5, 30 μM ZnSO4, 1% methanol, dizinc enzyme
CCCCCC(=O)N[C@H]1CCOC1=O = experiment: purified protein; settings: 1 mM Hepes pH 7.5, 30 μM ZnSO4, 1% methanol, dizinc enzyme
[7] = molecular target: AidC, N-acyl-L-homoserine lactone (AHL) lactonase from Chryseobacterium sp. strain StRB126 (Chryseobacterium sp. strain StRB126); experiment: SEC-MALS

Substance: AidC (Chryseobacterium sp. StRB126)
- Km [1]: 47 ± 5 µM
- kcat [1]: 80 ± 2 s⁻¹
- kcat/Km [1]: 1.7e+06 M⁻¹ s⁻¹
- Km (CCCCC(=O)N[C@H]1CCOC1=O): 130 ± 20 µM
- kcat (CCCCC(=O)N[C@H]1CCOC1=O): 57 ± 3 s⁻¹
- kcat/Km (CCCCC(=O)N[C@H]1CCOC1=O): 440000 M⁻¹ s⁻¹
- Km [2]: 130 ± 20 µM
- kcat [2]: 28 ± 1 s⁻¹
- kcat/Km [2]: 220000 M⁻¹ s⁻¹
- Km (CCCC(=O)N[C@H]1CCOC1=O): 470 ± 60 µM
- kcat (CCCC(=O)N[C@H]1CCOC1=O): 39 ± 2 s⁻¹
- kcat/Km (CCCC(=O)N[C@H]1CCOC1=O): 83000 M⁻¹ s⁻¹
- Km [3]: 7 ± 4 µM
- kcat [3]: 0.4 ± 0.05 s⁻¹
- kcat/Km [3]: 57000 M⁻¹ s⁻¹
- Km [4]: 12 ± 4 µM
- kcat [4]: 5.2 ± 0.4 s⁻¹
- kcat/Km [4]: 430000 M⁻¹ s⁻¹
- Km (CC(C)(C)OC(=O)NC1CCOC1=O): 740 ± 70 µM
- kcat (CC(C)(C)OC(=O)NC1CCOC1=O): 44 ± 1 s⁻¹
- kcat/Km (CC(C)(C)OC(=O)NC1CCOC1=O): 59000 M⁻¹ s⁻¹
- Km [5]: 470 ± 80 µM
- kcat [5]: 25 ± 2 s⁻¹
- kcat/Km [5]: 53000 M⁻¹ s⁻¹
- Km [6]: 83 ± 10 µM
- kcat [6]: 45 ± 3 s⁻¹
- kcat/Km [6]: 540000 M⁻¹ s⁻¹
- Km (CCCCCC(=O)N[C@H]1CCOC1=O): 61 ± 4 µM
- kcat (CCCCCC(=O)N[C@H]1CCOC1=O): 59 ± 1 s⁻¹
- kcat/Km (CCCCCC(=O)N[C@H]1CCOC1=O): 970000 M⁻¹ s⁻¹

- stoichiometry N [7]: 2 and 4
Substance: AidC, N-acyl-L-homoserine lactone (AHL) lactonase from Chryseobacterium sp. strain StRB126 (enzyme)
